From US10590168B2, “Substrates for FLT3 kinase and uses thereof” (REGENTS OF THE UNIVERSITY OF MINNESOTA, priority 2016, dated 2020)

Target: T1, FLT3 (Homo sapiens, UniProt P36888)
T1 sequence (P36888 27-993): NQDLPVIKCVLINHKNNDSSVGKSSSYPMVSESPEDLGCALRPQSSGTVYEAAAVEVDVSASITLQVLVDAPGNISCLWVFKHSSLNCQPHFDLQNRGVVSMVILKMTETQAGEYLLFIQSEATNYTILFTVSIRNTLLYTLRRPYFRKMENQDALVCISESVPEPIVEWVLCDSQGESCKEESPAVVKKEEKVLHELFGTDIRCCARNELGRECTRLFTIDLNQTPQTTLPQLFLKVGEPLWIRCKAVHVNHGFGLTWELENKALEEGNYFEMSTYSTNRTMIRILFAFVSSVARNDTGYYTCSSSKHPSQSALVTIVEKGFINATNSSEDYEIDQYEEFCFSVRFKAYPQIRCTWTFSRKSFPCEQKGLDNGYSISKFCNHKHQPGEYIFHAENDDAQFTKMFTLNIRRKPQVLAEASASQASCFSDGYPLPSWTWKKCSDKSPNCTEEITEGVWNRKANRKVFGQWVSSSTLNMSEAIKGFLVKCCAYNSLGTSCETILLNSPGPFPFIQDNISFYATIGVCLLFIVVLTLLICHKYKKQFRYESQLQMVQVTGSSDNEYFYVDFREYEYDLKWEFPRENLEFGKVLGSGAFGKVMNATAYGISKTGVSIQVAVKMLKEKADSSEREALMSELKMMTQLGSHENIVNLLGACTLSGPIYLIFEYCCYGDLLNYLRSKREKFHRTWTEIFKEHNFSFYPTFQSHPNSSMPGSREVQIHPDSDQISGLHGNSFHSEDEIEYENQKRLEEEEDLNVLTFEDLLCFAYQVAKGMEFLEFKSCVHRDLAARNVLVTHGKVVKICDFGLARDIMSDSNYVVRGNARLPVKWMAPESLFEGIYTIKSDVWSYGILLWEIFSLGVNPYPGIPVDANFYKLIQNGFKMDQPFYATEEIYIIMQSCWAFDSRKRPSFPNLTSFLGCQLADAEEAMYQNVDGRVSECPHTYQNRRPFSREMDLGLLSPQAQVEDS
Test: Phosphorylation of existing peptide substrate by FLT3
Assay type: biochemical
Settings: in the applicant's experience

**Q.** “FTDRLQQYISTR [Flt3tide, previously reported Flt3 substrate peptide (Böhmer & Uecker 2009)]” was tested. Which “phosphorylation by FLT3” value did it give?
**A.** Its value is “poorly phosphorylated”.
